Data taken from article PMC5941314, “Structural insights into the nanomolar affinity of RING E3 ligase ZNRF1 for Ube2N and its functional implications” (Biochemical Journal, 2018).
Residue numbers refer to the chain shown, from its start.

Assays:
Conditions in all cases: both partners purified
Ube2N [1] = target: T1, Ube2N (UniProt P61088 1-152); test: ITC; ZNRF1^CTD in the cell, Ube2N in the syringe; 25°C; Na-phosphate pH 8.0, 300 mM NaCl; single site model
T1 construct: Ube2N, ubiquitin-conjugating enzyme E2 N; also called wtUbe2N; source: E. coli Rossetta2 (DE3), purified (ion exchange, SEC)
T1 sequence (looked up): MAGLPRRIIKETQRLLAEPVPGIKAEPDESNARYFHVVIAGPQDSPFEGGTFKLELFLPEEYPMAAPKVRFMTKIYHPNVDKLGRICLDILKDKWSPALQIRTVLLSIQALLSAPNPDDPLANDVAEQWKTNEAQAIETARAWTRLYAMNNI

Ube2N [2] = target: T1, Ube2N; test: ITC; ZNRF1^CTD in the cell, Ube2N in the syringe; 25°C; Na-phosphate pH 8.0, 450 mM NaCl; single site model
Ube2N^R14A = target: T2, Ube2N^R14A (UniProt P61088 1-152, R14A); test: ITC; ZNRF1 construct (10–30 µM) in the cell, E2 in the syringe; 25°C; 20 mM sodium phosphate pH 8.0, 150 mM NaCl; single site model
T2 construct: Ube2N, ubiquitin-conjugating enzyme E2 N, with R14A; source: E. coli Rossetta2 (DE3), purified (ion exchange, SEC)
T2 sequence (looked up): T1 sequence (looked up) with R14A

Ube2N^R14E = target: T3, Ube2N^R14E (UniProt P61088 1-152, R14E); test: as above
T3 construct: Ube2N, ubiquitin-conjugating enzyme E2 N, with R14E; source: E. coli Rossetta2 (DE3), purified (ion exchange, SEC)
T3 sequence (looked up): T1 sequence (looked up) with R14E

Ube2N^S96R = target: T4, Ube2N^S96R (UniProt P61088 1-152, S96R); test: as above
T4 construct: Ube2N, ubiquitin-conjugating enzyme E2 N, with S96R; source: E. coli Rossetta2 (DE3), purified (ion exchange, SEC)
T4 sequence (looked up): T1 sequence (looked up) with S96R

Ube2N^A98T = target: T5, Ube2N^A98T (UniProt P61088 1-152, A98T); test: as above
T5 construct: Ube2N, ubiquitin-conjugating enzyme E2 N, with A98T; source: E. coli Rossetta2 (DE3), purified (ion exchange, SEC)
T5 sequence (looked up): T1 sequence (looked up) with A98T

Ube2N [3] = target: T1, Ube2N; test: as above
Ube2N/Ube2V1 complex = target: T6, Ube2N/Ube2V1 complex (UniProt P61088 1-152; Q13404 1-147); test: as above
T6 construct: Ube2N, ubiquitin-conjugating enzyme E2 N; Ube2V1, ubiquitin-conjugating enzyme E2 variant 1; also called Ube2N/V1; source: E. coli Rossetta2 (DE3), each purified, mixed in stoichiometric amounts, complex isolated by SEC
T6 sequence (Q13404 whole entry, one chain of several): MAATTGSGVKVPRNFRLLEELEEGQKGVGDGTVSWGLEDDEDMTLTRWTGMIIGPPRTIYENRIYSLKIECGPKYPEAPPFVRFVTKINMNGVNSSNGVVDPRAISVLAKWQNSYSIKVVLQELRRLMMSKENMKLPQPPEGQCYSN

Ube2D2 = target: T7, Ube2D2 (UniProt P62837 1-147); test: as above
T7 construct: Ube2D2, ubiquitin-conjugating enzyme E2 D2; also called wtUbe2D2; wild-type Ube2D2; source: E. coli Rossetta2 (DE3), purified (ion exchange, SEC)

Ube2W = target: T8, Ube2W (UniProt Q96B02 1-151); test: as above
T8 construct: Ube2W, ubiquitin-conjugating enzyme E2 W; source: E. coli Rossetta2 (DE3), purified (ion exchange, SEC)

Ube2N^R14D = target: T9, Ube2N^R14D (UniProt P61088 1-152, R14D); test: as above
T9 construct: Ube2N, ubiquitin-conjugating enzyme E2 N, with R14D; source: E. coli Rossetta2 (DE3), purified (ion exchange, SEC)
T9 sequence (looked up): T1 sequence (looked up) with R14D

Kd (Ube2N [1]): 0.171 µM | Kd (Ube2N [2]): 0.225 µM | Kd (Ube2N^R14A): 0.32 µM | Kd (Ube2N^R14E): 1.08 µM | Kd (Ube2N^S96R): 0.203 µM | Kd (Ube2N^A98T): 0.408 µM | Kd (Ube2N [3]): 0.0388 µM | Kd (Ube2N/Ube2V1 complex): 0.0392 µM | Kd (Ube2D2): 1.13 µM | Kd (Ube2W): 1.09 µM | Kd (Ube2N^R14D): 0.948 µM
B1: ZNRF1^CTD (C-terminal domain of ZNRF1, residues 139–227) (domain or fragment, UniProt Q8ND25 139-227, looked up)
chain: SHSGFKCPICSKSVASDEMEMHFIMCLSKPRLSYNDDVLTKDAGECVICLEELLQGDTIARLPCLCIYHKSCIDSWFEVNRSCPEHPAD
notes: ZNRF1, RING E3 ubiquitin ligase, residues 139-227 of the full-length protein (ZnF and RING domains); also called ZNRF1 C-terminal domain; ZRNF1^CTD; source: E. coli Rossetta2 (DE3), purified (HisTrap, SEC)
